Numbering of substitutions follows the chain as printed. In names and notes the source's numbering stands.
B1: wild type NSP3 (non-structural protein 3) of simian species A rotavirus strain RRV (natural protein)
chain: MESTQQMASSIINSSFEAAVVAATSTLELMGIQYDYNEVYTRVKSKFDLVMDDSGVKNNLIGKAITIDQALNGKFSSAIRNRNWMTDSRTVAKLDEDVNKLRIMLSSKGIDQKMRVLNACFSVKRIPGKSSSIVKCTRLMKDKLERGEVEVDDSFVEEKMEVDTIDWKSRYEQLEKRFESLKHRVNEKYNHWVLKARKVNENMNSLQNVISQQQAHINELQMYNNKLERDLQSKIGSVVSSIEWYLRSMELSDDVKSDIEQQLNSIDQLNPVNAIDDFESILRNLISDYDRLFIMFKGLLQQCNYTYTYE
notes: also called wtNSP3; RRV NSP3
B2: NSP3 W170A of rotavirus strain RRV (natural protein)
chain: B1 chain with W167A
notes: also called vNSP3_(W170A)

Target: the molecule itself
Test: non-dissociating Western blot (WB-ND); lysates of vaccinia-infected BSC-1 cells (18 hpi) mixed with 2x non-dissociating sample buffer (62.5 mM Tris-HCl pH 6.8, 0.8% SDS, 20% glycerol), 30 min on ice, not boiled; 12% SDS-PAGE in a cold room; blot with anti-NSP3 rat serum; stable dimer band (68 kDa) told apart from monomer/dimerization intermediate band (34 kDa); cells with MG132 or DMSO, in one experiment with …

Protein	stoichiometry N	fold lower accumulation of stable dimers than NSP3_(Y192A) [fold]	fold lower accumulation of stable dimers than wtNSP3 [fold]
B1	2	–	–
B2	–	16	9
